The target in experiment [1] is Avaren‐Fc expressed in glycoengineered ΔXylT/ΔFucT N. benthamiana (AvFc^ΔXF) ( | human). Briefly: SPR. (In general: Surface plasmon resonance follows binding to a sensor surface in real time, without labels.)
The target in experiment [2] is Avaren‐Fc expressed in wild‐type N. benthamiana (AvFc^WT) ( | human). Kind of experiment: SPR.

For two molecules, Kd results are on record in PMC9616523 (2022).

B1: mouse FcγRIV (receptor)
chain: GLQKAVVNLDPKWVRVLEEDSVTLRCQGTFSPEDNSIKWFHNESLIPHQDANYVIQSARVKDSGMYRCQTALSTISDPVQLEVHMGWLLLQTTKWLFQEGDPIHLRCHSWQNRPVRKVTYLQNGKGKKYFHENSELLIPKATHNDSGSYFCRGLIGHNNKSSASFRISLGDPGSPSMFPPWHQ
A word on the Kd: it is the constant that tells how readily two partners part at equilibrium. Low values mean tighter binding, high ones weaker binding. As to B1, the dissociation constant (Kd) in experiment [1] turned out to be 457 nM; in experiment [2] it was 2530 nM.

B2: human FcγRI (receptor)
chain: QVDTTKAVITLQPPWVSVFQEETVTLHCEVLHLPGSSSTQWFLNGTATQTSTPSYRITSASVNDSGEYRCQRGLSGRSDPIQLEIHRGWLLLQVSSRVFTEGEPLALRCHAWKDKLVYNVLYYRNGKAFKFFHWNSNLTILKTNISHNGTYHCSGMGKHRYTSAGISVTVKELFPAPVLNASVTSPLLEGNLVTLSCETKLLLQRPGLQLYFSFYMGSKTLRGRNTSSEYQILTARREDSGLYWCEAATEDGNVLKRSPELELQVLGLQLPTPVWFH
Turning to B2, the Kd amounted to 4.04 nM in experiment [1] and 7.78 nM in experiment [2].
